B1: RHOBTB2 (parent)
chain: HHHHGRDFLLRAASFDVCESVDEA
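Further: lentivirally expressed fusions sorted by FACS into six bins by GFP to DsRed ratio, PSI derived from sequencing read proportions per bin multiplied by bin number.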

The variants in the data set derive from B1. Put plainly: protein stability index of a GFP-peptide fusion (GPS, HEK-293T) (PSI 1-6); higher = more stable. The note with it: c terminus: a fixed tail appended.
Regarding HHHHGRDFLLRAASFDVCESVDED [A24D], the protein stability index came to 4.26.
To HHHHGRDFLLRAASFDVCESVDEI [A24I] belongs 3.17; to HHHHGRDFLLRAASFDVCESVDEG [A24G], 3.88.
To HHHHGRDFLLRAASFDVCESVDEF [A24F] belongs 2.65.
As for HHHHGRDFLLRAASFDVCESVDEC [A24C], the protein stability index was 3.04.
To HHHHGRDFLLRAASFDVCESVDEH [A24H] belongs 3.92; to HHHHGRDFLLRAASFDVCESVDEK [A24K], 3.85.
For HHHHGRDFLLRAASFDVCESVDEE [A24E], the protein stability index is 4.15.
To HHHHGRDFLLRAASVDVCESVDEA [F15V] belongs 4.33; to HHHHGRDFLLRAASLDVCESVDEA [F15L], 3.24.
To HHHHGRDFLLRAASEDVCESVDEA [F15E] belongs 4.86.
To HHHHGRDFLLRAASMDVCESVDEA [F15M] belongs 4.74; to HHHHGRDFLLRAASQDVCESVDEA [F15Q], 4.1; to HHHHGRDFLLRAASYDVCESVDEA [F15Y], 3.92.
For HHHHGRDFLLRAASSDVCESVDEA [F15S], the protein stability index was 4.76.
Turning to HHHHGRDFLLRAASGDVCESVDEA [F15G], the protein stability index is 4.38.
The figure for HHHHGRDFLLRAASPDVCESVDEA [F15P] is 4.37; for HHHHGRDFLLRAASKDVCESVDEA [F15K] it is 4.58; for HHHHGRDFLLRAASIDVCESVDEA [F15I] it is 3.94.
For HHHHGRDFLLRAASCDVCESVDEA [F15C], the protein stability index was determined as 4.57.
The figure for HHHHGRDFLLRAASADVCESVDEA [F15A] is 4.78; for HHHHGRDFLLRAASWDVCESVDEA [F15W] it is 3.94.
To HHHHGRDFLLRAASDDVCESVDEA [F15D] belongs 5.01; to HHHHGRDFLLRAASHDVCESVDEA [F15H], 4.11.
The figure for HHHHGRDFLLRAASNDVCESVDEA [F15N] is 4.35; for HHHHGRDFLLRAASTDVCESVDEA [F15T] it is 4.74.
Turning to HHHHGRDFLLRAASRDVCESVDEA [F15R], the protein stability index is 4.88.
To HHHHGRDFLLRAASFDVCELVDEA [S20L] belongs 3.16; to HHHHGRDFLLRAASFDVCENVDEA [S20N], 3.98.
In the case of HHHHGRDFLLRAASFDVCEHVDEA [S20H], the protein stability index stood at 2.81.
To HHHHGRDFLLRAASFDVCERVDEA [S20R] belongs 3.34; to HHHHGRDFLLRAASFDVCEMVDEA [S20M], 2.71.
The figure for HHHHGRDFLLRAASFDVCEGVDEA [S20G] is 4.1; for HHHHGRDFLLRAASFDVCEQVDEA [S20Q] it is 3.83; for HHHHGRDFLLRAASFDVCEWVDEA [S20W] it is 2.39.
To HHHHGRDFLLRAASFDVCEEVDEA [S20E] belongs 4.46.
As for HHHHGRDFLLRAASFDVCEYVDEA [S20Y], the protein stability index turned out to be 3.21.
The figure for HHHHGRDFLLRAASFDVCEFVDEA [S20F] is 2.88.
To HHHHGRDFLLRAASFDVCEDVDEA [S20D] belongs 4.1; to HHHHGRDFLLRAASFDVCECVDEA [S20C], 2.94; to HHHHGRDFLLRAASFDVCEPVDEA [S20P], 3.76.
To HHHHGRDFLLRAASFDVCEKVDEA [S20K] belongs 4.12; to HHHHGRDFLLRAASFDVCEIVDEA [S20I], 2.73.
Consider HHHHGRDFLLRAASFDVCEAVDEA [S20A], for which the protein stability index worked out at 3.08.
On to HHHHGRDFLLRAASFDVCEVVDEA [S20V], for which the protein stability index is 3.03.
The figure for HHHHGRDFLLRAASFDVCETVDEA [S20T] is 4; for HHHHGRDFLLRAASFDVCESVFEA [D22F] it is 2.21; for HHHHGRDFLLRAASFDVCESVWEA [D22W] it is 1.82.
The figure for HHHHGRDFLLRAASFDVCESVKEA [D22K] is 3.33.
To HHHHGRDFLLRAASFDVCESVNEA [D22N] belongs 3.14.
With HHHHGRDFLLRAASFDVCESVMEA [D22M], the protein stability index was 3.04.
The figure for HHHHGRDFLLRAASFDVCESVQEA [D22Q] is 3.09; for HHHHGRDFLLRAASFDVCESVHEA [D22H] it is 2.99; for HHHHGRDFLLRAASFDVCESVCEA [D22C] it is 2.56.
To HHHHGRDFLLRAASFDVCESVREA [D22R] belongs 3.15; to HHHHGRDFLLRAASFDVCESVIEA [D22I], 2.5.
The figure for HHHHGRDFLLRAASFDVCESVVEA [D22V] is 2.91; for HHHHGRDFLLRAASFDVCESVPEA [D22P] it is 2.85; for HHHHGRDFLLRAASFDVCESVGEA [D22G] it is 3.
With HHHHGRDFLLRAASFDVCESVLEA [D22L], the protein stability index amounted to 2.33.
For HHHHGRDFLLRAASFDVCESVEEA [D22E], the protein stability index worked out at 3.77.
To HHHHGRDFLLRAASFDVCESVAEA [D22A] belongs 3; to HHHHGRDFLLRAASFDVCESVYEA [D22Y], 2.44; to HHHHGRDFLLRAASFDVCESVSEA [D22S], 3.44.
To HHHHGRDFLLRAASFDVCESVTEA [D22T] belongs 3.
To HHHHGRDFLLRAAMFDVCESVDEA [S14M] belongs 3.05; to HHHHGRDFLLRAAYFDVCESVDEA [S14Y], 2.79.
As for HHHHGRDFLLRAATFDVCESVDEA [S14T], the protein stability index stood at 3.47.
The figure for HHHHGRDFLLRAARFDVCESVDEA [S14R] is 2.62; for HHHHGRDFLLRAALFDVCESVDEA [S14L] it is 2.88.
As for HHHHGRDFLLRAAVFDVCESVDEA [S14V], the protein stability index stood at 2.84.
Turning to HHHHGRDFLLRAAQFDVCESVDEA [S14Q], the protein stability index stood at 4.17.
HHHHGRDFLLRAAPFDVCESVDEA [S14P]: the protein stability index was 4.22.
For HHHHGRDFLLRAANFDVCESVDEA [S14N], the protein stability index stood at 4.5.
The figure for HHHHGRDFLLRAAWFDVCESVDEA [S14W] is 2.66.
The figure for HHHHGRDFLLRAASFDVCESVDWA [E23W] is 2.52; for HHHHGRDFLLRAASFDVCESVDDA [E23D] it is 3.39; for HHHHGRDFLLRAASFDVCESVDCA [E23C] it is 2.67.
To HHHHGRDFLLRAASFDVCESVDRA [E23R] belongs 3.37; to HHHHGRDFLLRAASFDVCESVDGA [E23G], 3.21; to HHHHGRDFLLRAASFDVCESVDYA [E23Y], 2.83.
HHHHGRDFLLRAASFDVCESVDFA [E23F]: the protein stability index is 2.37.
Consider HHHHGRDFLLRAASFDVCESVDKA [E23K], for which the protein stability index amounted to 2.57.
The figure for HHHHGRDFLLRAASFDVCESVDLA [E23L] is 2.02; for HHHHGRDFLLRAASFDVCESVDIA [E23I] it is 2.92; for HHHHGRDFLLRAASFDVCESVDSA [E23S] it is 3.25.
The figure for HHHHGRDFLLRAASFDVCESVDPA [E23P] is 3.65; for HHHHGRDFLLRAASFDVCESVDNA [E23N] it is 3.26.
The figure for HHHHGRDFLLRAASFDVCESVDHA [E23H] is 2.93.
As to HHHHGRDFLLRAASFDVCESVDVA [E23V], the protein stability index was 2.45.
To HHHHGRDFLLRAASFDVCESVDMA [E23M] belongs 3.34; to HHHHGRDFLLRAASFDVCESVDQA [E23Q], 3.66; to HHHHGRDFLLRAASFDVCESVDTA [E23T], 3.13.
To HHHHGRDFLLRAASFDVCESVDAA [E23A] belongs 2.94.
